Test results from patent publication US20140274782A1, “AFFINITY REAGENTS AND METHODS FOR DETECTION, PURIFICATION, AND PROTEOMIC ANALYSIS OF METHYLATED PROTEINS” (The Board of Trustees of the Leland Stanford Junior …, priority 2013, published 2014).

Experiments:
G9a and GLP = target: T1, G9a and GLP (Homo sapiens, UniProt Q96KQ7+Q9H9B1); test: Triple SILAC pull-down after UNC0638 treatment of 293T cells, DMSO/UNC0638 ratio of protein captured by 3×MBT; format: cell-based; conditions: for Relative to UNC0638 UNC Heavy: UNC0638 in heavy SILAC media; for Relative to UNC0638 UNC Light: UNC0638 in light SILAC media; for Relative to UNC0638 Average: average of UNC Light and UNC Heavy experiments;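 for all read-outs here: mass spectrometry (Q-Exactive) SILAC quantitation, DMSO/UNC0638 ratio computed after subtracting 3×MBTD355N mutant pull-down background, only proteins with at least twofold 3×MBT over mutant signal considered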
T1 construct: endogenous in cells; host or cells: HEK 293T
T1 sequence (Q96KQ7 2-1210 limits assumed): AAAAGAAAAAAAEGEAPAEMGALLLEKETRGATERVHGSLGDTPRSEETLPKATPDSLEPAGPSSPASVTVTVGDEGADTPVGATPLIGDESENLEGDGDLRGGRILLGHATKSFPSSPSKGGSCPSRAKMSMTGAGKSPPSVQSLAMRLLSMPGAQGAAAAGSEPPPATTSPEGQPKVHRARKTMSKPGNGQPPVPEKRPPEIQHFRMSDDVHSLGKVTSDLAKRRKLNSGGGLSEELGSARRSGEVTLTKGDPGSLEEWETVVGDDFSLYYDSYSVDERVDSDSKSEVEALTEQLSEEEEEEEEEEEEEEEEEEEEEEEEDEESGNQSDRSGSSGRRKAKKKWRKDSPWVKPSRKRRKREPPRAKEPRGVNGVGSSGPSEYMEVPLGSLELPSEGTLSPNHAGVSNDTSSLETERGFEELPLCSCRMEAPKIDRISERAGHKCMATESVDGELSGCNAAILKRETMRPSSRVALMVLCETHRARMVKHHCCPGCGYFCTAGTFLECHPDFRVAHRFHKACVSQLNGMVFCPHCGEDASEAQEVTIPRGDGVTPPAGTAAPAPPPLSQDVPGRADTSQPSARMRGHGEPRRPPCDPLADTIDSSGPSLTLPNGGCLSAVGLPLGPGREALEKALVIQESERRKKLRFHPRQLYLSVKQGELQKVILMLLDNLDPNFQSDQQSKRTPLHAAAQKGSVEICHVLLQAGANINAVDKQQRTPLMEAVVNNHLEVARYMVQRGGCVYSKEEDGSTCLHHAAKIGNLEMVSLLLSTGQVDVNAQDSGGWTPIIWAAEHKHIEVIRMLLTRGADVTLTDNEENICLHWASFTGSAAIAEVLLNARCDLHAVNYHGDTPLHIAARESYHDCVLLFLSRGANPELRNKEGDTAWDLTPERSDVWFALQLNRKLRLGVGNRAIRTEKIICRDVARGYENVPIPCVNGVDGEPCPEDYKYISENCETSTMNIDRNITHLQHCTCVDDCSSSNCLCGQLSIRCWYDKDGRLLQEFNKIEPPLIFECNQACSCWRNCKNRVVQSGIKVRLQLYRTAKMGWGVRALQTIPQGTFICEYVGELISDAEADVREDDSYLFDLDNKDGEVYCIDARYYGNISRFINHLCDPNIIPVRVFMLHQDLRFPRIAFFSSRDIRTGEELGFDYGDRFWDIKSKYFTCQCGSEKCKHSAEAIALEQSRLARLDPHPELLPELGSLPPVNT
T1 sequence (Q9H9B1 2-1298 limits assumed): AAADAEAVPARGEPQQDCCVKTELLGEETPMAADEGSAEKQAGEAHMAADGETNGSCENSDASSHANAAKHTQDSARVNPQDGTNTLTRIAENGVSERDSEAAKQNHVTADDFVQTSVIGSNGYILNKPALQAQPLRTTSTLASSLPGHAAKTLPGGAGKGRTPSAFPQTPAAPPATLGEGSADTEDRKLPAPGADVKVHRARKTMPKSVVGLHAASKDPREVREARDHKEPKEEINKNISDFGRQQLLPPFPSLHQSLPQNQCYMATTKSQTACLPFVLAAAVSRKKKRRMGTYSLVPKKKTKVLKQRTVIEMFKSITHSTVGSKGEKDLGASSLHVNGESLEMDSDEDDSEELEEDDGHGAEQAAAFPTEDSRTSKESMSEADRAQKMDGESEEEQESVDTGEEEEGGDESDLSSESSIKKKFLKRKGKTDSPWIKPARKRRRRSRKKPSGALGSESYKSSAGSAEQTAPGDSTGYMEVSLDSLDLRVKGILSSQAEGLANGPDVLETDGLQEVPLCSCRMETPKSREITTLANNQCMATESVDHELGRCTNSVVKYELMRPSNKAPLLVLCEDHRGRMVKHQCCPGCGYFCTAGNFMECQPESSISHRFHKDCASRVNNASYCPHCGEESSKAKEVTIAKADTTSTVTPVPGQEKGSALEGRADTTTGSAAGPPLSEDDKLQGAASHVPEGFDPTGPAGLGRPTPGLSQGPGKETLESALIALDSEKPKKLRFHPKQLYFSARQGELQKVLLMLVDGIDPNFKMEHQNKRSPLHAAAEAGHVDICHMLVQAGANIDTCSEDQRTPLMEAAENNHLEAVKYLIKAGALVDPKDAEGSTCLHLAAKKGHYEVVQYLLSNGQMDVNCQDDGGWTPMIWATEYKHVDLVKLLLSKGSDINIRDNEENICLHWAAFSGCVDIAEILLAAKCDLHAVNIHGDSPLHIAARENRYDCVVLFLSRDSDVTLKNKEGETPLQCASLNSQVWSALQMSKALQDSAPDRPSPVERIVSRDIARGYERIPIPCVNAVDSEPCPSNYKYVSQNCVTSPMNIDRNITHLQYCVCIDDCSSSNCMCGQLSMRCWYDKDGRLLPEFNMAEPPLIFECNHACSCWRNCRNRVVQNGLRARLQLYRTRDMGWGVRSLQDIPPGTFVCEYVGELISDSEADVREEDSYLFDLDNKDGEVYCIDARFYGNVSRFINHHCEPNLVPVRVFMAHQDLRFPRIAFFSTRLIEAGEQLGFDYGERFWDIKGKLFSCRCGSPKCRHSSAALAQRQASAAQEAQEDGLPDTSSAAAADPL

3×MBT domain of L3MBTL1 = test: Triple SILAC pull-down, 3xMBT/3xMBTD355N ratio (cytoplasmic, nuclear and chromatin fractions of 293T cells); format: binding, human; conditions: for 3xMBT/D355N UNC Heavy: experiment with UNC0638 in heavy SILAC media; for 3xMBT/D355N UNC Light: experiment with UNC0638 in light SILAC media;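 for all read-outs here: proteins quantified with MaxQuant, requiring at least two unique peptides and quantification in both label directions, normalized to the mean of proteins from a digested loading control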
[1] = SILAC ratio DMSO relative to UNC0638, pull-down with 3xMBT, all values in log base 2
[2] = SILAC ratio 3xMBT vs 3xMBTD355N pull-down, 293T cells, all values in log base 2
[3] = SILAC ratio DMSO/UNC0638 of protein pulled down with 3xMBT
[4] = SILAC ratio, pull-down 3xMBT vs 3xMBTD355N

| Substance | Relative to UNC0638 UNC Heavy (G9a and GLP; [1]) [log base 2] | Relative to UNC0638 UNC Light (G9a and GLP; [1]) [log base 2] | Relative to UNC0638 Average (G9a and GLP; all values in log base 2) [log base 2] | 3xMBT/D355N UNC Heavy (3×MBT domain of L3MBTL1; [2]) [log base 2] | 3xMBT/D355N UNC Light (3×MBT domain of L3MBTL1; [2]) [log base 2] | Relative to UNC0638 UNC Heavy (G9a and GLP; [3]) [log base 2] | Relative to UNC0638 UNC Light (G9a and GLP; [3]) [log base 2] | Relative to UNC0638 Average (G9a and GLP) [log base 2] | Candidate G9a/GLP target (G9a and GLP; reduced association with 3xMBT after UNC0638 treatment) | 3xMBT/D355N UNC Heavy (3×MBT domain of L3MBTL1; [4]) [log base 2] | 3xMBT/D355N UNC Light (3×MBT domain of L3MBTL1; [4]) [log base 2] | Protein Ratios DMSO/UNC0638 (G9a and GLP; SILAC ratio of protein captured by 3xMBT, 293T cells treated 24 hours with UNC0638 at 2.5 μM or DMSO) | Protein Ratios 3xMBT/D355N (3×MBT domain of L3MBTL1; SILAC ratio, pull-down by 3xMBT vs 3xMBTD355N, 293T cells) |
| --- | --- | --- | --- | --- | --- | --- | --- | --- | --- | --- | --- | --- | --- |
| ABCF1 | 0.22 | −0.04 | 0.09 | 2.36 | 2.94 | – | – | – | – | – | – | – | – |
| RECQL | – | – | – | – | – | 0.71 | 0.21 | 0.46 | ✓ | 3.43 | 5.03 | – | – |
| NPM1 | – | – | – | – | – | 0.24 | 0.11 | 0.17 | – | 1.24 | 1.27 | – | – |
| HSPA8 | – | – | – | – | – | 0.28 | 0.06 | 0.17 | – | 2.05 | 1.48 | – | – |
| XRCC5 | – | – | – | – | – | 0.14 | 0.17 | 0.15 | – | 2.15 | 2.80 | – | – |
| PSIP1 | – | – | – | – | – | 0.17 | 0.15 | 0.16 | – | 2.72 | 2.92 | – | – |
| SUPT16H | – | – | – | – | – | 0.04 | 0.23 | 0.13 | – | 3.66 | 4.01 | – | – |
| MCM6 | – | – | – | – | – | 0.10 | 0.26 | 0.18 | – | 2.48 | 2.53 | – | – |
| CORO1C | – | – | – | – | – | 0.07 | 0.26 | 0.17 | – | 2.83 | 3.30 | – | – |
| STRAP | 0.24 | −0.15 | 0.05 | 1.61 | 1.80 | – | – | – | – | – | – | – | – |
| EIF4A1 | – | – | – | – | – | 0.30 | 0.05 | 0.18 | – | 3.59 | 3.68 | – | – |
| EIF4E | – | – | – | – | – | 0.04 | 0.31 | 0.18 | – | 2.40 | 2.40 | – | – |
| TOP2B | – | – | – | – | – | 0.21 | 0.21 | 0.21 | – | 1.61 | 2.04 | – | – |
| SNRNP70 | 0.22 | −0.01 | 0.11 | 3.26 | 3.57 | – | – | – | – | – | – | – | – |
| CHD4 | – | – | – | – | – | 0.34 | 0.14 | 0.24 | – | 2.24 | 3.63 | – | – |
| NONO | – | – | – | – | – | 0.17 | 0.16 | 0.17 | – | 3.18 | 3.75 | – | – |
| ILF2 | – | – | – | – | – | 0.15 | 0.22 | 0.18 | – | 3.72 | 3.45 | – | – |
| 60S ribosomal protein L5 | – | – | – | – | – | – | – | – | – | – | – | 1.4 | 2.3 |
